# How the values were obtained:
# [1] = biological target: Cys36 (UniProt position 37, FTATWCGPCKM); assay: chemical modification (iodoacetamide alkylation) with MALDI-TOF mass spectrometry; settings: not stated for the alkylation step (pre-reduction at 25 °C); 200 mM acetate/acetic acid (pH 3.5-5.5); 100 mM phosphate (pH 6.0-8.0); 100 mM HEPES-NaOH (pH 7.5-8.5); 100 mM glycine (above pH 8.5); carry-over of 50 mM phosphate pH 7.1 and TCEP from pre-reduction; fully reduced (TCEP), both active-site cysteines free thiols
# [2] = biological target: Cys39 (UniProt position 40, TWCGPCKMIAP); assay: as above; settings: not stated for the alkylation step (pre-reduction at 25 °C); 200 mM acetate/acetic acid (pH 3.5-5.5); 100 mM phosphate (pH 6.0-8.0); 100 mM HEPES-NaOH (pH 7.5-8.5); 100 mM glycine (above pH 8.5); carry-over of 40 mM phosphate pH 7.1 from pre-alkylation; Cys36 pre-alkylated (carbamidomethylated), Cys39 free thiol
Substance,pKa [1],pKa [2]
Thioredoxin h1 (CrTRXh1) (Chlamydomonas reinhardtii),6.63 ± 0.13,
"Thioredoxin h1 (CrTRXh1), monoalkylated at Cys36 (CrTRXh1-CAM) (Chlamydomonas reinhardtii)",,9.53 ± 0.12
